Measurements as given in US20240277770A1, “SYSTEMS AND METHODS TO IDENTIFY MHC-ASSOCIATED ANTIGENS FOR THERAPEUTIC INTERVENTION” (GENENTECH, INC., priority 2021, published 2024).

Biological target: recombinant conditional HLA-A*02:01 complex (human)
Experiment: TR-FRET peptide exchange / HLA complex stability assay
Settings: remark: other sources report otherwise

RZ-score: 3.9
Binder: HMTEVVRHC (here or on the partner: biotinylated (BirA)) […]
